According to paper PMC12720113, “The binding mechanism of a novel ferrous ion chelating peptide from chicken blood hemoglobin and the bioavailability of the chelate” (Food Chemistry: X, 2025):

Tested on: Caco-2 cells
Experiment: Caco-2 cell viability assay (MTT)
Type: cell-based
Details: 24 h, 490 nm, means ± SEM
Description: Caco-2 cell viability assay was conducted on […]-Fe according to the method of [Wu et al. (2019)]. And lactoferrin was chosen as an experimental control. When the cell fusion rate was close to 80 %, the cells were dissociated and passaged using the trypsin-EDTA mixed digest. Cultivate the 23rd generation of cells in the logarithmic growth phase at 37 °C and 5 % CO₂ for 24 h. Then, a gradient concentration of […]-Fe and Ac-[…]-Fe was added to the wells of the experimental group, and all the samples were incubated for 24 h. After incubation, 20 μL of MTT reagent was added to each well. After 2 h of reaction, 150 μL of DMSO was added and agitated for 10 min. The absorbance values at 490 nm were measured to reflect cell activity levels. Cell relative activity (%) was calculated:(3) Relative cell viability%=As−Ab/Ac−Ab×100 where: As represents the absorbance value of the sample treatment, Ab represents the absorbance value without cells, and Ac represents the absorbance value without sample treatment.

B1: lactoferrin (protein, UniProt P24627 20-708, looked up)
Lactotransferrin: APRKNVRWCTISQPEWFKCRRWQWRMKKLGAPSITCVRRAFALECIRAIAEKKADAVTLDGGMVFEAGRDPYKLRPVAAEIYGTKESPQTHYYAVAVVKKGSNFQLDQLQGRKSCHTGLGRSAGWIIPMGILRPYLSWTESLEPLQGAVAKFFSASCVPCIDRQAYPNLCQLCKGEGENQCACSSREPYFGYSGAFKCLQDGAGDVAFVKETTVFENLPEKADRDQYELLCLNNSRAPVDAFKECHLAQVPSHAVVARSVDGKEDLIWKLLSKAQEKFGKNKSRSFQLFGSPPGQRDLLFKDSALGFLRIPSKVDSALYLGSRYLTTLKNLRETAEEVKARYTRVVWCAVGPEEQKKCQQWSQQSGQNVTCATASTTDDCIVLVLKGEADALNLDGGYIYTAGKCGLVPVLAENRKSSKHSSLDCVLRPTEGYLAVAVVKKANEGLTWNSLKDKKSCHTAVDRTAGWNIPMGLIVNQTGSCAFDEFFSQSCAPGADPKSRLCALCAGDDQGLDKCVPNSKEKYYGYTGAFRCLAEDVGDVAFVKNDTVWENTNGESTADWAKNLNREDFRLLCLDGTRKPVTEAQSCHLAVAPNHAVVSRSDRAAHVKQVLLHQQALFGKNGKNCPDKFCLFKSETKNLLFNDNTECLAKLGGRPTYEEYLGTEYVTAIANLKKCSTSPLLEACAFLTR
notes: conventional iron supplement, experimental control
Relative vitality of cells (%) (Caco-2, 0.125 mg/mL): 92.86 ± 1.03% | Relative vitality of cells (%) (Caco-2, 0.25 mg/mL): 81.43 ± 0.94% | Relative vitality of cells (%) (Caco-2, 0.5 mg/mL): 77.76 ± 1.27% | Relative vitality of cells (%) (Caco-2, 1 mg/mL): 74.83 ± 0.84% | Relative vitality of cells (%) (Caco-2, 2 mg/mL): 66.90 ± 1.42%
